For experiment [1], the target named is 20 pseudotyped viruses representing 10 different HIV-1 clades. Description: cell-based or functional assay.
Experiment [2] has as its target panel of 208 different HIV-1 Env-pseudotyped viruses. Description: cell-based or functional assay.
Experiment [3] concerns the target 20 pseudotyped viruses representing 10 different HIV-1 clades. Description: cell-based or functional assay. The source holds these as a separate data set.
The target of experiment [4] is T1, MPER binding peptide (Acetyl-[…]-Ttds-Lys-(Biotin)-NH2) (HIV-1). Description: SPR (Biacore) with the MPER binding peptide.
Experiment [5] deals with T1, MPER binding peptide ….

Read-outs that look alike come from different tables or passages of the source.

B1: V1/V2 directed Ab “a” (antibody, V domains shown)
VH: QVHLTQSGPEVRKPGTSVKVSCKAPGNTLKTYDLHWVRSVPGQGLQWMGWISHEGDKKVIVERFKAKVTIDWDRSTNTAYLQLSGLTSGDTAVYYCAKGSKHRLRDYALYDDDGALNWAVDVDYLSNLEFWGQGTAVTVSS
VL: DFVLTQSPHSLSVTPGESASISCKSSHSLIHGDRNNYLAWYVQKPGRSPQLLIYLASSRASGVPDRFSGSGSDKDFTLKISRVETEDVGTYYCMQGRESPWTFGQGTKVDIK
Regarding B1, the figures for the Geometric Mean (IC80) in experiment [1] and in experiment [2] were 0.094 µg/mL and 0.063 µg/mL, respectively. Besides, the Median IC80 in experiment [1] amounted to 0.06 µg/mL; in experiment [2] it was 0.037 µg/mL.

B2: V1/V2 directed Ab “b” (antibody, V domains shown)
VH: QVQLVESGGGVVQPGTSLRLSCAASQFRFDGYGMHWVRQAPGKGLEWVASISHDGIKKYHAEKVWGRFTISRDNSKNTLYLQMNSLRPEDTALYYCAKDLREDECEEWWSDYYDFGKQLPCAKSRGGLVGIADNWGQGTMVTVSS
VL: QSVLTQPPSVSAAPGQKVTISCSGNTSNIGNNFVSWYQQRPGRAPQLLIYETDKRPSGIPDRFSASKSGTSGTLAITGLQTGDEADYYCATWAASLSSARVFGTGTKVIVL
As for B2, in experiment [3], the Geometric Mean (IC80) came out at 0.039 µg/mL and the Median IC80 is 0.051 µg/mL.

B3: Binding Protein 2 (protein)
light 1: DFVLTQSPHSLSVTPGESASISCKSSHSLIHGDRNNYLAWYVQKPGRSPQLLIYLASSRASGVPDRFSGSGSDKDFTLKISRVETEDVGTYYCMQGRESPWTFGQGTKVDIKDKTHTASELTQDPAVSVALKQTVTITCRGDSLRSHYASWYQKKPGQAPVLLFYGKNNRPSGIPDRFSGSASGNRASLTITGAQAEDEADYYCSSRDKSGSRLSVFGGGTKLTVLDKTHTRTVAAPSVFIFPPSDEQLKSGTASVVCLLNNFYPREAKVQWKVDNALQSGNSQESVTEQDSKDSTYSLSSTLTLSKADYEKHKVYACEVTHQGLSSPVTKSFNRGEC
heavy 1: EVRLVESGGGLVKPGGSLRLSCSASGFDFDNAWMTWVRQPPGKGLEWVGRITGPGEGWSVDYAESVKGRFTISRDNTKNTLYLEMNNVRTEDTGYYFCARTGKYYDFWSGYPPGEEYFQDWGQGTLVIVSSDKTHTQVHLTQSGPEVRKPGTSVKVSCKAPGNTLKTYDLHWVRSVPGQGLQWMGWISHEGDKKVIVERFKAKVTIDWDRSTNTAYLQLSGLTSGDTAVYYCAKGSKHRLRDYALYDDDGALNWAVDVDYLSNLEFWGQGTAVTVSSDKTHTASTKGPSVFPLAPSSKSTSGGTAALGCLVKDYFPEPVTVSWNSGALTSGVHTFPAVLQSSGLYSLSSVVTVPSSSLGTQTYICNVNHKPSNTKVDKKVEPKSCDKTHTCPPCPAPELLGGPSVFLFPPKPKDTLMISRTPEVTCVVVDVSHEDPEVKFNWYVDGVEVHNAKTKPREEQYNSTYRVVSVLTVLHQDWLNGKEYKCKVSNKALPAPIEKTISKAKGQPREPQVYTLPPCRDELTKNQVSLWCLVKGFYPSDIAVEWESNGQPENNYKTTPPVLDSDGSFFLYSKLTVDKSRWQQGNVFSCSVLHEALHSHYTQKSLSLSPG
heavy 2: RAHLVQSGTAMKKPGASVRVSCQTSGYTFTAHILFWFRQAPGRGLEWVGWIKPQYGAVNFGGGFRDRVTLTRDVYREIAYMDIRGLKPDDTAVYYCARDRSYGDSSWALDAWGQGTTVVVSAASTKGPSVFPLAPSSKSTSGGTAALGCLVKDYFPEPVTVSWNSGALTSGVHTFPAVLQSSGLYSLSSVVTVPSSSLGTQTYICNVNHKPSNTKVDKKVEPKSCDKTHTCPPCPAPELLGGPSVFLFPPKPKDTLMISRTPEVTCVVVDVSHEDPEVKFNWYVDGVEVHNAKTKPREEQYNSTYRVVSVLTVLHQDWLNGKEYKCKVSNKALPAPIEKTISKAKGQPREPQVCTLPPSRDELTKNQVSLSCAVKGFYPSDIAVEWESNGQPENNYKTTPPVLDSDGSFFLVSKLTVDKSRWQQGNVFSCSVLHEALHSHYTQKSLSLSPG
light 2: YIHVTQSPSSLSVSIGDRVTINCQTSQGVGSDLHWYQHKPGRAPKLLIHHTSSVEDGVPSRFSGSGFHTSFNLTISDLQADDIATYYCQVLQFFGRGSRLHIKRTVAAPSVFIFPPSDEQLKSGTASVVCLLNNFYPREAKVQWKVDNALQSGNSQESVTEQDSKDSTYSLSSTLTLSKADYEKHKVYACEVTHQGLSSPVTKSFNRGEC
The term Kd denotes a measure of binding affinity in units of concentration. A higher Kd goes with a looser complex. What is called koff is the first-order rate constant of dissociation. Lower therefore signals a long-lived complex. Usually kon stands for the second-order rate constant of association. Higher therefore signals fast association. Turning to B3, in experiment [1], the Geometric Mean (IC80) stood at 0.222 µg/mL and the Median IC80 was determined as 0.375 µg/mL. Also, in experiment [2], the Geometric Mean (IC80) was determined as 0.028 µg/mL and the Median IC80 was determined as 0.026 µg/mL. Besides, in experiment [4], the fold higher affinity than the MPER antibody is 3.1 fold. In experiment [5], this molecule registered a Ka of 1.65e+08 M⁻¹, a Kd of 6.05 nM, a dissociation rate constant (koff) of 0.000697 s⁻¹ and an on-rate constant (kon) of 115000 M⁻¹ s⁻¹.

B4: Binding Protein 3 (protein)
light 1: ASELTQDPAVSVALKQTVTITCRGDSLRSHYASWYQKKPGQAPVLLFYGKNNRPSGIPDRFSGSASGNRASLTITGAQAEDEADYYCSSRDKSGSRLSVFGGGTKLTVLDKTHTDFVLTQSPHSLSVTPGESASISCKSSHSLIHGDRNNYLAWYVQKPGRSPQLLIYLASSRASGVPDRFSGSGSDKDFTLKISRVETEDVGTYYCMQGRESPWTFGQGTKVDIKDKTHTRTVAAPSVFIFPPSDEQLKSGTASVVCLLNNFYPREAKVQWKVDNALQSGNSQESVTEQDSKDSTYSLSSTLTLSKADYEKHKVYACEVTHQGLSSPVTKSFNRGEC
heavy 1: QVHLTQSGPEVRKPGTSVKVSCKAPGNTLKTYDLHWVRSVPGQGLQWMGWISHEGDKKVIVERFKAKVTIDWDRSTNTAYLQLSGLTSGDTAVYYCAKGSKHRLRDYALYDDDGALNWAVDVDYLSNLEFWGQGTAVTVSSDKTHTEVRLVESGGGLVKPGGSLRLSCSASGFDFDNAWMTWVRQPPGKGLEWVGRITGPGEGWSVDYAESVKGRFTISRDNTKNTLYLEMNNVRTEDTGYYFCARTGKYYDFWSGYPPGEEYFQDWGQGTLVIVSSDKTHTASTKGPSVFPLAPSSKSTSGGTAALGCLVKDYFPEPVTVSWNSGALTSGVHTFPAVLQSSGLYSLSSVVTVPSSSLGTQTYICNVNHKPSNTKVDKKVEPKSCDKTHTCPPCPAPELLGGPSVFLFPPKPKDTLMISRTPEVTCVVVDVSHEDPEVKFNWYVDGVEVHNAKTKPREEQYNSTYRVVSVLTVLHQDWLNGKEYKCKVSNKALPAPIEKTISKAKGQPREPQVYTLPPCRDELTKNQVSLWCLVKGFYPSDIAVEWESNGQPENNYKTTPPVLDSDGSFFLYSKLTVDKSRWQQGNVFSCSVLHEALHSHYTQKSLSLSPG
heavy 2: RAHLVQSGTAMKKPGASVRVSCQTSGYTFTAHILFWFRQAPGRGLEWVGWIKPQYGAVNFGGGFRDRVTLTRDVYREIAYMDIRGLKPDDTAVYYCARDRSYGDSSWALDAWGQGTTVVVSAASTKGPSVFPLAPSSKSTSGGTAALGCLVKDYFPEPVTVSWNSGALTSGVHTFPAVLQSSGLYSLSSVVTVPSSSLGTQTYICNVNHKPSNTKVDKKVEPKSCDKTHTCPPCPAPELLGGPSVFLFPPKPKDTLMISRTPEVTCVVVDVSHEDPEVKFNWYVDGVEVHNAKTKPREEQYNSTYRVVSVLTVLHQDWLNGKEYKCKVSNKALPAPIEKTISKAKGQPREPQVCTLPPSRDELTKNQVSLSCAVKGFYPSDIAVEWESNGQPENNYKTTPPVLDSDGSFFLVSKLTVDKSRWQQGNVFSCSVLHEALHSHYTQKSLSLSPG
light 2: YIHVTQSPSSLSVSIGDRVTINCQTSQGVGSDLHWYQHKPGRAPKLLIHHTSSVEDGVPSRFSGSGFHTSFNLTISDLQADDIATYYCQVLQFFGRGSRLHIKRTVAAPSVFIFPPSDEQLKSGTASVVCLLNNFYPREAKVQWKVDNALQSGNSQESVTEQDSKDSTYSLSSTLTLSKADYEKHKVYACEVTHQGLSSPVTKSFNRGEC
As for B4, in experiment [1], the Geometric Mean (IC80) was 0.287 µg/mL and the Median IC80 is 0.469 µg/mL. In experiment [2], the Geometric Mean (IC80) came to 0.051 µg/mL and the Median IC80 worked out at 0.045 µg/mL. Besides, in experiment [5], the Ka is 6e+07 M⁻¹, the dissociation constant Kd came out at 16.7 nM, the koff was found to be 0.000779 s⁻¹ and the on-rate constant (kon) came to 46700 M⁻¹ s⁻¹.

B5: MPER Ab (antibody, V domains shown)
VH: EVRLVESGGGLVKPGGSLRLSCSASGFDFDNAWMTWVRQPPGKGLEWVGRITGPGEGWSVDYAESVKGRFTISRDNTKNTLYLEMNNVRTEDTGYYFCARTGKYYDFWSGYPPGEEYFQDWGQGTLVIVSS
VL: ASELTQDPAVSVALKQTVTITCRGDSLRSHYASWYQKKPGQAPVLLFYGKNNRPSGIPDRFSGSASGNRASLTITGAQAEDEADYYCSSRDKSGSRLSVFGGGTKLTVL
In experiment [2], B5 yielded a Geometric Mean (IC80) of 1.34 µg/mL and a Median IC80 of 1.69 µg/mL. Besides, in experiment [5], the Ka was found to be 5.35e+07 M⁻¹, the Kd came out at 18.7 nM, the off-rate (koff) is 0.00109 s⁻¹ and the association rate constant (kon) came out at 58500 M⁻¹ s⁻¹.
